# Patent US20120308566A1 (published 2012)
# Substitutions are numbered along the chain they refer to.
# B1: AMH17/AML17 (antibody, V domains shown)
# VH: QVQLVQSGAEVKKPGAAVKVSCKATGYTLTSYGISWVRQAPGQGLEWMGWISAYSGNTKYAQKLQGRVTMTTDTSTSTAYMELRSLRSDDTAVYYCARKQLVFDYWGQGTLVTVSS
# VL: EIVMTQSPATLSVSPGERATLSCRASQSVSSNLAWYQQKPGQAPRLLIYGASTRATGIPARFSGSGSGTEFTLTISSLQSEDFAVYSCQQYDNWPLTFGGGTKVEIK
# B2: AMH12/AML12 (antibody, IgG2, V domains shown)
# VH: B1 VH with A17S, T25S, A53T, S55K, K59N
# VL: EIVMTQSPATLSVSPGERATLSCRASQSISSSLAWYQQKPGQAPRLLIYGASTRATGIPARFSGSGSGTEFTLTISSLQSENFAVYYCQQYDNWPLTFGGGTKVEIK
# B3: AMH19/AML19 (antibody, IgG2, V domains shown)
# VH: B1 VH with A17S, T25S, L64F, K99R, V102A, F103L
# VL: B2 VL with S32N, G64D, S65N, N82D, Y87F, N93T
# B4: AMH16/AML16 (antibody, IgG2, V domains shown)
# VH: B1 VH with A17S, T25S, L29F, S55N, A79V
# VL: B2 VL with S31T, A51T, N82D, Y87F, N93I
# B5: AMH4/AML4 (antibody, IgG2, V domains shown)
# VH: QVQLVESGGGVVQPGRSLRLSCAASGINFSSYGMHWVRQAPGKGLEWVAVIWYDGSNKHYADSVKGRFTISRDNSKNTLYLQMNSLRAEDTAVYYCARDTGVYWGQGTLVTVSS
# VL: not shown
# notes: human monoclonal antibody from IgG2 XenoMouse mice; also called AM-4
# B6: AMH7/AML7 (antibody, IgG2, V domains shown)
# VH: QVQLVQSGAEVKKPGASVKVSCKASGYTLTRYGISWVRQAPGQGLEWMGWISAYNGNTNYAQKLQGRVTMTTDTSTSTAYMELRSLRSDDTAVYYCARRDYDILTGYYNGFDPWGQGTLVTVSS
# VL: DIQMTQSPSSLSASVGDRVTITCRASQGIRNDLGWYQQKPGKAPKRLIYAASSLQSGVPSRFSGSGSGTEFTLTISSLQPEDFATYYCLQHKSYPLTFGGGTKVEIK
# notes: human monoclonal antibody from IgG2 XenoMouse mice; also called AM-7
# B7: AMH6/AML6 (antibody, IgG2, V domains shown)
# VH: B6 VH
# VL: B6 VL
# notes: human monoclonal antibody from IgG2 XenoMouse mice; also called AM-6
# B8: AMH8/AML8 (antibody, IgG2, V domains shown)
# VH: B6 VH with Y27N, L29F, R31G, K63N
# VL: B6 VL
# notes: human monoclonal antibody from IgG2 XenoMouse mice; also called AM-8
# B9: AMH13/AML13 (antibody, IgG2, V domains shown)
# VH: QVQLVESGGGVVQPGRSLRLSCAASGFTFSSYGMQWVRQAPGKGLEWVAVIWYDGNKKYYADSVKGRFTISRDNSKNTLYLQMNSLRAEDTAVYYCARGRVRDYYYGMDVWGQGTTVTVSS
# VL: DIVMTQTPLSLSVTPGQPASIACKSSQSLLHSDGKTYLYWYLQKPGQPPQLLIYEVSTRFSGVPDRFSGSGSGTDFTLKISRVEAEDVGVFYCMQSIQLPLTFGGGTKVEIK
# B10: AMH21/AML21 (antibody, IgG2, V domains shown)
# VH: EVQLVESGGGSVQPGGSLRLSCAASGFTFSSYSMNWVRQAPGKGLEWVSIISSRSSIIHYADSVKGRFTISRDNAKNSLYLQMNSLRDEDTAVYYCARPKVGGGMDVWGQGTTVTVSS
# VL: DIQMTQSPSSLSASVGDRVTITCRASQGISNYLAWYQQKPGKFPELLIYAASTLQSGVPSRFSGSGSGTDFTLTISSLQPEDVATYYCQKYNRAPFTFGPGTKVDIK
# B11: AMH20/AML20 (antibody, IgG2, V domains shown)
# VH: B10 VH with S11L, I50F, S53A, I57T, H59Y
# VL: B10 VL
# B12: AMH18/AML18 (antibody, IgG2, V domains shown)
# VH: QVQLVQSGAEVKKPGASVKVSCKASGYSFTDYYMHWVRQAPGQGLEWMGWMHPNSGGTDLAQRFQGRVTMTRDTSISTAYMELSRLRSDDTAVYYCARGGYCSTLSCSFYWYFDLWGRGTLVTVSS
# VL: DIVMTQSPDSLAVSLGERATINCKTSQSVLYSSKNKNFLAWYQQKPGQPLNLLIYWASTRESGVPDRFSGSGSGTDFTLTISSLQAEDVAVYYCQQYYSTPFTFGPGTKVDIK
# notes: human monoclonal antibody from IgG2 XenoMouse mice; also called AM-18
# B13: AMH10/AML10 (antibody, IgG2, V domains shown)
# VH: QVQLQESGPGLVKPSQTLSLTCTVSGGSISSGGYYWSWIRQHPGKGLEWIGYIYFSGSAYYNPSLKSRVAISVDTSKNQFSLKLSSVTAADTAVYYCAREYYDSSGYPDAFDIWGQGTMVTVSS
# VL: DIQMTQSPSSVSASVGDRVTITCRASQGIRSWLAWYQQKPGKAPKLLIFAASSLQSGVPSRFSGSGSGTEFTLTISSLQPEDFATYYCQQANNFPRTFGQGTKVEIK
# notes: human monoclonal antibody from IgG2 XenoMouse mice; also called AM-10
# Key:
# [1] = target: Human IL-17RA full-length expressed on the surface of cells (human, UniProt Q96F46 33-866); experiment: cell-based or functional assay
# huIL-17RA-FLAG-polyHis = target: T1, huIL-17RA-FLAG-polyHis (human, UniProt Q96F46 33-320); experiment: multiplexed Luminex binning
# T1 construct: also called wild-type IL-17RA-FLAG-polyHis; HuIL-17RA-Flag-pHis
# Method: Cross-competition studies were performed to determine IL-17RA binding characteristics of exemplary IL-17RA antibodies. […] The method employed the Bio-Plex Workstation and software (BioRad, Hercules, Calif.), as well as reagents from Luminex® Corp. (Austin, Tex.). The manufacturers' basic protocols were followed except where noted below (see www.bio-rad.com and www.luminexcorp.com for details). […] The mouse-anti-human IgG coating was evaluated and the beads quantified by FACS. Each bead code was separately incubated with 10 ul of anti-IL-17RA antibody for 1 hour at room temperature and then washed. The beads were pooled and then dispensed to a 96-well filter plate (Millipore, Billerica, Mass., product #MSBVN1250). […] The PE-tagged monovalent antibody will detect the presence of the second mAb added to the well, but not the first mAb captured by the monovalent mouse-anti-human IgG antibody. Beads were resuspended in 120 ul PBSAT and at least 100 events/bead code were collected on the Bio-Plex workstation as per the manufacturer's recommended protocol.
# chimera L = target: T2, chimera L; experiment: Bio-Plex titration on His-captured chimera; bold cell = binding criterion not met
# T2 construct: also called Construct L; B+F
# Method: Twelve bead codes of pentaHis-coated beads (Qiagen, Valencia, Calif.; see www1.qiagen.com) were used to capture histidine-tagged protein. The 12 bead codes allowed the multiplexing of 11 chimeric and the wild type human IL-17RA.
# To prepare the beads, 100 ul of wild-type IL-17RA supernatant from transient expression culture and 100 ul of 2.5 ug/ml chimeric protein were bound to penta-His-coated beads overnight at 4° C. or 2 hours at room temperature with vigorous shaking. The beads were washed as per the manufacturer's protocol and the 12 bead set was pooled and aliquoted into 2 or 3 columns of a 96-well filter plate (Millipore, Billerica, Mass., product #MSBVN1250) for duplicate or triplicate assay points, respectively. 100 ul anti-IL-17RA antibodies in 4-fold dilutions were added to the wells, incubated for 1 hour at room temperature, and washed. […] Beads were resuspended in 1% BSA, shaken for 3 minutes, and read on the Bio-Plex workstation. Antibody binding to IL-17RA chimeric protein was compared to antibody binding to the human IL-17RA wild-type from the same pool. A titration of antibody over approximately a 5 log scale was performed. Median Fluorescence Intensity (MFI) of chimeric proteins was graphed as a percent of maximum wild-type human IL-17RA signal.
binder,measurement,setting,value
B1,IL-17A/HFF bioassay IC50; 21. Subclone of (AMH17/AML17),[1],2.5 nM
same,IL-17A/HFF bioassay IC50; 22. Subclone of (AMH17/AML17),[1],5.3 nM
same,IL-17A/HFF bioassay IC50; 23. Subclone of (AMH17/AML17),[1],0.57 nM
B2,IL-17A/HFF bioassay IC50; 17. Subclone of (AMH12/AML12),[1],3.5 nM
same,IL-17A/HFF bioassay IC50; 18. Subclone of (AMH12/AML12),[1],3.7 nM
same,IL-17A/HFF bioassay IC50; 20. Subclone of (AMH12/AML12),[1],5.5 nM
B3,IL-17A/HFF bioassay IC50; 10. Subclone of (AMH19/AML19),[1],0.22 nM
same,IL-17A/HFF bioassay IC50; 11. Subclone of (AMH19/AML19),[1],1.1 nM
same,IL-17A/HFF bioassay IC50; 12. Subclone of (AMH19/AML19),[1],0.5 nM
B4,IL-17A/HFF bioassay IC50; 24. Subclone of (AMH16/AML16),[1],1.6 nM
same,IL-17A/HFF bioassay IC50; 25. Subclone of (AMH16/AML16),[1],2.3 nM
same,IL-17A/HFF bioassay IC50; 26. Subclone of (AMH16/AML16),[1],1.4 nM
B5,binding result,huIL-17RA-FLAG-polyHis,binds
B6,binding result,huIL-17RA-FLAG-polyHis,binds
B7,binding result,huIL-17RA-FLAG-polyHis,binds
B8,binding result,huIL-17RA-FLAG-polyHis,binds
B9,IL-17A/HFF bioassay IC50; 13. Subclone of (AMH13/AML13),[1],> 10 nM
B10,IL-17A/HFF bioassay IC50; 4. Subclone of (AMH21/AML21),[1],2.3 nM
same,IL-17A/HFF bioassay IC50; 5. Subclone of (AMH21/AML21),[1],3.1 nM
same,IL-17A/HFF bioassay IC50; 6. Subclone of (AMH21/AML21),[1],3.3 nM
B11,IL-17A/HFF bioassay IC50; 7. Subclone of (AMH20/AML20),[1],8.1 nM
same,IL-17A/HFF bioassay IC50; 8. Subclone of (AMH20/AML20),[1],6.6 nM
same,IL-17A/HFF bioassay IC50; 9. Subclone of (AMH20/AML20),[1],6.7 nM
B12,IL-17A/HFF bioassay IC50; 14. Subclone of (AMH18/AML18),[1],0.44 nM
same,IL-17A/HFF bioassay IC50; 15. Subclone of (AMH18/AML18),[1],0.4 nM
same,IL-17A/HFF bioassay IC50; 16. Subclone of (AMH18/AML18),[1],0.17 nM
same,EC50 entry; zero = binding ablated,chimera L,0 nM
B13,binding result,huIL-17RA-FLAG-polyHis,binds
